Assay results from patent US20220177587A1, “METHODS AND USES OF VARIANT CD80 FUSION PROTEINS AND RELATED CONSTRUCTS” (Alpine Immune Sciences, Inc., priority 2018, published 2022).
Where two headings read alike, the source gives them in different places.

Key:
PD-L1 (human) [1] = molecular target: PD-L1 (human) (UniProt Q9NZQ7)
Target sequence in this assay (Q9NZQ7 19-290): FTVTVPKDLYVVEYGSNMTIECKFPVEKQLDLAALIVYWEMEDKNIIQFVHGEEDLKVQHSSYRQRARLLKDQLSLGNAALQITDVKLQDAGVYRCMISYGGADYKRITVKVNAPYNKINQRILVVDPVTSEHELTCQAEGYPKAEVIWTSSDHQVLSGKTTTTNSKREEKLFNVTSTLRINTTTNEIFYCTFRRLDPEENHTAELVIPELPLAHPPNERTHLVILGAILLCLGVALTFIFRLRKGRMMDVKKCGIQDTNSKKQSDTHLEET

CD28 (human) [2] = molecular target: CD28 (human) (UniProt P10747)
PD-L1 (human) [3] = molecular target: PD-L1 (human) (UniProt Q9NZQ7); remark: listed apart in the source
Target sequence in this assay (Q9NZQ7 19-290): as above

CD28 (human) [4] = molecular target: CD28 (human) (UniProt P10747); remark: listed apart in the source
CD28 (human) [5] = molecular target: CD28 (human) (UniProt P10747); assay: flow cytometry, Jurkat cells (CD28)
PD-L1 (human) [6] = molecular target: PD-L1 (human) (UniProt Q9NZQ7); assay: flow cytometry, MFI on PD-L1 over MFI on CD28
Target sequence in this assay (Q9NZQ7 19-290): as above

PD-L1 (human) [7] = molecular target: PD-L1 (human) (UniProt Q9NZQ7); assay: flow cytometry, CHO cells expressing PD-L1
Target sequence in this assay (Q9NZQ7 19-290): as above

human CTLA-4 (human) [8] = molecular target: human CTLA-4 (human) (UniProt P16410); assay: flow cytometry, CHO cells expressing CTLA4
Chain of human CTLA-4 (human) (P16410 36-223): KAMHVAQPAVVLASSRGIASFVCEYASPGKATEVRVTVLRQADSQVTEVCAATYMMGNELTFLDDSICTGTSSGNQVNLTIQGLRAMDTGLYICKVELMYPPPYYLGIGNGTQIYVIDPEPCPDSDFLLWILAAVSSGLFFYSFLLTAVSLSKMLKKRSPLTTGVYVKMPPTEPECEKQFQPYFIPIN

CD28 (human) [9] = molecular target: CD28 (human) (UniProt P10747); assay: flow cytometry, Jurkat/IL2 reporter cells (endogenous CD28)
PD-L1 (human) [10] = molecular target: PD-L1 (human) (UniProt Q9NZQ7); assay: flow cytometry, CHO cells expressing huPD-L1
Target sequence in this assay (Q9NZQ7 19-290): as the sequence (Q9NZQ7 19-290) above

PD-L1 (human) [11] = molecular target: PD-L1 (human) (UniProt Q9NZQ7); assay: flow cytometry, CHO cells stably expressing PD-L1
Target sequence in this assay (Q9NZQ7 19-290): as above

human CTLA-4 (human) [12] = molecular target: human CTLA-4 (human) (UniProt P16410); assay: flow cytometry, CHO cells stably expressing CTLA4
CD28 (human) [13] = molecular target: CD28 (human) (UniProt P10747); assay: flow cytometry, Jurkat cells (CD28); remark: listed apart in the source
PD-L1 (human) [14] = molecular target: PD-L1 (human) (UniProt Q9NZQ7); remark: listed apart in the source
Target sequence in this assay (Q9NZQ7 19-290 limits assumed): as the sequence (Q9NZQ7 19-290) above

CD28 (human) [15] = molecular target: CD28 (human) (UniProt P10747); remark: listed apart in the source
PD-L1 (human) [16] = molecular target: PD-L1 (human) (UniProt Q9NZQ7); assay: flow cytometry, MFI on PD-L1 cells over MFI on CD28 cells
PD-L1 (human) [17] = molecular target: PD-L1 (human) (UniProt Q9NZQ7); remark: listed apart in the source
CD28 (human) [18] = molecular target: CD28 (human) (UniProt P10747); remark: listed apart in the source
human CTLA-4 (human) [19] = molecular target: human CTLA-4 (human) (UniProt P16410); assay: flow cytometry, CHO cells expressing huCTLA4

CD80 E23G/A26S/E35D/T62N/A71D/L72V/L85M IgV-Fc (inert) (Fc fusion)
Jurkat/IL2 reporter RLU at 50 nM, CHO/OKT3/PD-L1 aAPC (PD-L1 (human) [1]): 695 RLU
Jurkat/IL2 reporter RLU at 50 nM, CHO/OKT3/PD-L1 aAPC (CD28 (human) [2]): 695 RLU
Jurkat/IL2 reporter RLU at 50 nM, CHO/OKT3 aAPC without PD-L1 (CD28 (human) [2]): 606 RLU
IL-2 release, primary T cells + K562/OKT3/PD-L1, 100 nM (PD-L1 (human) [3]): 102
IL-2 release, primary T cells + K562/OKT3/PD-L1, 100 nM (CD28 (human) [4]): 102

CD80 H18Y/E35D/D46E/M47I/V68M/R94L IgV-Fc (Fc fusion)
Fold change to WT CD80 (CD28 (human) [5]): 7.8 fold
MFI at 33.3 nM (CD28 (human) [5]): 244 MFI
Ratio of PDL1:CD28 (PD-L1 (human) [6]): 77.1
Fold change to WT CD80 (PD-L1 (human) [7]): 365 fold
MFI at 33.3 nM (PD-L1 (human) [7]): 18800 MFI
Fold change to WT CD80 (human CTLA-4 (human) [8]): 13.3 fold
MFI at 33.3 nM (human CTLA-4 (human) [8]): 23300 MFI

CD80 T13R/Q33R/E35D/M38I/M47L/V68M/L85M IgV-Fc (Fc fusion)
Fold change to WT CD80 (CD28 (human) [5]): 0.5 fold
MFI at 33.3 nM (CD28 (human) [5]): 14.2 MFI
Ratio of PDL1:CD28 (PD-L1 (human) [6]): 77.9
Fold change to WT CD80 (PD-L1 (human) [7]): 21.5 fold
MFI at 33.3 nM (PD-L1 (human) [7]): 1110 MFI
Fold change to WT CD80 (human CTLA-4 (human) [8]): 12.6 fold
MFI at 33.3 nM (human CTLA-4 (human) [8]): 22000 MFI

variant CD80 IgV-Fc Q33R/E35D/K37E/M47V/L85Q (Fc fusion)
MFI at 33.3 nM (CD28 (human) [9]): 258 MFI
MFI at 33.3 nM (PD-L1 (human) [10]): 44400 MFI

CD80 H18Y/V22D/E35D/M47V/N48K/V68M IgV-Fc (Fc fusion)
Fold change to WT CD80 (CD28 (human) [5]): 8.2 fold
MFI at 33.3 nM (CD28 (human) [5]): 257 MFI
Ratio of PDL1:CD28 (PD-L1 (human) [6]): 50.1
Fold change to WT CD80 (PD-L1 (human) [7]): 250 fold
MFI at 33.3 nM (PD-L1 (human) [7]): 12900 MFI
Fold change to WT CD80 (human CTLA-4 (human) [8]): 9 fold
MFI at 33.3 nM (human CTLA-4 (human) [8]): 15800 MFI

variant CD80 IgV-Fc H18Y/A26E/E35D/V68M/A71G/D90G (Fc fusion)
Fold change to WT CD80 (PD-L1 (human) [11]): 658 fold
MFI at 33.3 nM (PD-L1 (human) [11]): 28700 MFI
Fold change to WT CD80 (human CTLA-4 (human) [12]): 17.2 fold
MFI at 33.3 nM (human CTLA-4 (human) [12]): 23400 MFI
Fold change to WT CD80 (CD28 (human) [13]): 40 fold
MFI at 33.3 nM (CD28 (human) [13]): 1760 MFI
IL-2 luciferase reporter, fold increase over WT CD80-IgV-Fc at 5.0 nM (PD-L1 (human) [14]): 2.41 fold
IL-2 luciferase reporter, fold increase over WT CD80-IgV-Fc at 5.0 nM (CD28 (human) [15]): 2.41 fold
Ratio of PDL1:CD28 (PD-L1 (human) [16]): 16.3

CD80 IgV-Fc H18Y/E35D/M38I/M47L/V68M/L85M (Fc fusion)
RLU at 5.0 nM: Fold Increase over WT CD80-IgV-Fc (PD-L1 (human) [17]): 0.5 fold
RLU at 5.0 nM: Fold Increase over WT CD80-IgV-Fc (CD28 (human) [18]): 0.5 fold

variant CD80 IgV-Fc A26E/E35D/V68M/A71G/D90G (Fc fusion)
Fold change to WT CD80 (PD-L1 (human) [11]): 608 fold
MFI at 33.3 nM (PD-L1 (human) [11]): 26500 MFI
Fold change to WT CD80 (human CTLA-4 (human) [12]): 17.1 fold
MFI at 33.3 nM (human CTLA-4 (human) [12]): 23300 MFI
Fold change to WT CD80 (CD28 (human) [13]): 47.9 fold
MFI at 33.3 nM (CD28 (human) [13]): 2100 MFI
IL-2 luciferase reporter, fold increase over WT CD80-IgV-Fc at 5.0 nM (PD-L1 (human) [14]): 2.34 fold
IL-2 luciferase reporter, fold increase over WT CD80-IgV-Fc at 5.0 nM (CD28 (human) [15]): 2.34 fold
Ratio of PDL1:CD28 (PD-L1 (human) [16]): 12.6

CD80 E35D/M47L/V68M/E95V/L97Q IgV-Fc (Fc fusion)
Fold change to WT CD80 (CD28 (human) [5]): 0.5 fold
MFI at 33.3 nM (CD28 (human) [5]): 14 MFI
Ratio of PDL1:CD28 (PD-L1 (human) [6]): 1300
Fold change to WT CD80 (PD-L1 (human) [7]): 361 fold
MFI at 33.3 nM (PD-L1 (human) [7]): 18600 MFI
Fold change to WT CD80 (human CTLA-4 (human) [8]): 8.5 fold
MFI at 33.3 nM (human CTLA-4 (human) [8]): 15000 MFI

variant CD80 IgV-Fc E24D/Q33L/E35D/M47V/K54R/L85Q (Fc fusion)
MFI at 33.3 nM (PD-L1 (human) [10]): 67100 MFI
MFI at 33.3 nM (human CTLA-4 (human) [19]): 311000 MFI

CD80 IgV-Fc V22D/E24D/E35D/M47L/V68M/L85M/D90G (Fc fusion)
RLU at 5.0 nM: Fold Increase over WT CD80-IgV-Fc (PD-L1 (human) [17]): 2.4 fold
RLU at 5.0 nM: Fold Increase over WT CD80-IgV-Fc (CD28 (human) [18]): 2.4 fold

variant CD80 IgV-Fc H18Y/A26E/V68M/A71G/D90G (Fc fusion)
Fold change to WT CD80 (PD-L1 (human) [11]): 639 fold
MFI at 33.3 nM (PD-L1 (human) [11]): 27900 MFI
Fold change to WT CD80 (human CTLA-4 (human) [12]): 13.5 fold
MFI at 33.3 nM (human CTLA-4 (human) [12]): 18300 MFI
Fold change to WT CD80 (CD28 (human) [13]): 61.1 fold
MFI at 33.3 nM (CD28 (human) [13]): 2680 MFI
IL-2 luciferase reporter, fold increase over WT CD80-IgV-Fc at 5.0 nM (PD-L1 (human) [14]): 2.5 fold
IL-2 luciferase reporter, fold increase over WT CD80-IgV-Fc at 5.0 nM (CD28 (human) [15]): 2.5 fold
Ratio of PDL1:CD28 (PD-L1 (human) [16]): 10.4

variant CD80 IgV-Fc H18Y/A26E/E35D/A71G/D90G (Fc fusion)
Fold change to WT CD80 (PD-L1 (human) [11]): 340 fold
MFI at 33.3 nM (PD-L1 (human) [11]): 14800 MFI
Fold change to WT CD80 (human CTLA-4 (human) [12]): -0.1 fold
MFI at 33.3 nM (human CTLA-4 (human) [12]): -100 MFI
Fold change to WT CD80 (CD28 (human) [13]): 24.5 fold
MFI at 33.3 nM (CD28 (human) [13]): 1080 MFI
IL-2 luciferase reporter, fold increase over WT CD80-IgV-Fc at 5.0 nM (PD-L1 (human) [14]): 2.45 fold
IL-2 luciferase reporter, fold increase over WT CD80-IgV-Fc at 5.0 nM (CD28 (human) [15]): 2.45 fold
Ratio of PDL1:CD28 (PD-L1 (human) [16]): 13.8

CD80 E35D/M47I IgV-Fc (inert) (Fc fusion)
Jurkat/IL2 reporter RLU at 50 nM, CHO/OKT3/PD-L1 aAPC (PD-L1 (human) [1]): 3780 RLU
Jurkat/IL2 reporter RLU at 50 nM, CHO/OKT3/PD-L1 aAPC (CD28 (human) [2]): 3780 RLU
Jurkat/IL2 reporter RLU at 50 nM, CHO/OKT3 aAPC without PD-L1 (CD28 (human) [2]): 894 RLU
IL-2 release, primary T cells + K562/OKT3/PD-L1, 100 nM (PD-L1 (human) [3]): 8310
IL-2 release, primary T cells + K562/OKT3/PD-L1, 100 nM (CD28 (human) [4]): 8310

variant CD80 IgV-Fc Q33L/E35D/M47V (Fc fusion)
MFI at 33.3 nM (PD-L1 (human) [10]): 47900 MFI
MFI at 33.3 nM (human CTLA-4 (human) [19]): 47600 MFI

variant CD80 IgV-Fc H18Y/A26E/E35D/V68M/A71G (Fc fusion)
Fold change to WT CD80 (PD-L1 (human) [11]): 630 fold
MFI at 33.3 nM (PD-L1 (human) [11]): 27500 MFI
Fold change to WT CD80 (human CTLA-4 (human) [12]): 14.3 fold
MFI at 33.3 nM (human CTLA-4 (human) [12]): 19400 MFI
Fold change to WT CD80 (CD28 (human) [13]): 9 fold
MFI at 33.3 nM (CD28 (human) [13]): 394 MFI
IL-2 luciferase reporter, fold increase over WT CD80-IgV-Fc at 5.0 nM (PD-L1 (human) [14]): 2.46 fold
IL-2 luciferase reporter, fold increase over WT CD80-IgV-Fc at 5.0 nM (CD28 (human) [15]): 2.46 fold
Ratio of PDL1:CD28 (PD-L1 (human) [16]): 69.7

CD80 IgV-Fc E35D/D46E/M47I/V68M/L85M (Fc fusion)
RLU at 5.0 nM: Fold Increase over WT CD80-IgV-Fc (PD-L1 (human) [17]): 3.1 fold
RLU at 5.0 nM: Fold Increase over WT CD80-IgV-Fc (CD28 (human) [18]): 3.1 fold

CD80 H18Y/E35D/M47L/V68M/E95V/L97Q IgV-Fc (Fc fusion)
Fold change to WT CD80 (CD28 (human) [5]): 0.5 fold
MFI at 33.3 nM (CD28 (human) [5]): 14.5 MFI
Ratio of PDL1:CD28 (PD-L1 (human) [6]): 1020
Fold change to WT CD80 (PD-L1 (human) [7]): 286 fold
MFI at 33.3 nM (PD-L1 (human) [7]): 14800 MFI
Fold change to WT CD80 (human CTLA-4 (human) [8]): 11.7 fold
MFI at 33.3 nM (human CTLA-4 (human) [8]): 20500 MFI
